What was measured:
[1] = target: Asialylated etanercept (etanercept treated with sialidase)
[2] = target: Etanercept (native, fully glycosylated)
[3] = target: T1, TNFαR (the TNFα binding part of etanercept), P20333
T1 chain: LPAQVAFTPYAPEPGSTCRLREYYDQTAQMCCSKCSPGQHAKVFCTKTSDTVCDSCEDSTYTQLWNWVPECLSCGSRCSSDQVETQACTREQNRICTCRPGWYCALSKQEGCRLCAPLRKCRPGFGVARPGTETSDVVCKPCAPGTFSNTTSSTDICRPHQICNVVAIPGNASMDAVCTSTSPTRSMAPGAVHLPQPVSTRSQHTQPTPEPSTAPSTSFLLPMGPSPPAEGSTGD

B1: LS (O-glycoprotein-specific endoprotease encoded by the Amuc1119 gene of Akkermansia muciniphila, with N-terminal Met and C-terminal GSG-His6) (protein)
chain: MEVTVPDALKDRIALKKTARQLNIVYFLGSDTEPVPDYERRLSELLLYLQQFYGKEMQRHGYGARSFGLDIKSPGRVNIIEYKAKNPAAHYPYENGGGWKAAQELDEFFKAHPDRKKSQHTLIIMPTWNDEKNGPDNPGGVPFYGMGRNCFALDYPAFDIKHLGQKTREGRLLTKWYGGMAHELGHGLNLPHNHQTASDGKKYGTALMGSGNYTFGTSPTFLTPASCALLDACEVFSVTPSQQFYEGKPEVEVGDVAISFKGDQILVSGNYKSPQTVKALNVYIQDPPYAVNQDYDAVSFSRRLGKKSGKFSMKIDKKELEGLNNNEFRISLMFILANGLHMQKHFTFHWDALQDYRDGSKSGSGHHHHHH
hydrolysis and release from double-mutant resin, SDS-PAGE (Asialylated Abatacept): could be hydrolyzed and eluted from the double-mutant-resin by LS in 6 h but had a slightly more complete elution after 24 h | hydrolysis and release from double-mutant resin, SDS-PAGE [1]: could be hydrolyzed and eluted from the double-mutant-resin by LS in 6 h but had a slightly more complete elution after 24 h | hydrolysis of substrate, SDS-PAGE [1]: LS was able to hydrolyze etanercept in the presence of sialidase | hydrolysis of substrate, SDS-PAGE [2]: full hydrolysis after overnight incubation | hydrolysis of substrate, SDS-PAGE [3]: LS had activity in all samples except those treated with O-glycosidase.

— patent US20230212543
